Experimental data reported in the nanobody polyreactivity screen of Harvey et al. (2022).

Assay: yeast display, Sf9 membrane polyspecificity reagent, FACS + sequencing; frameworks hold sequencing errors
Summary of the method: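 Sorting gates, low and high (top ~1%), were placed on anti-HA fluorescence to track expression and on streptavidin fluorescence to track reagent binding. A clone's polyreactivity label is taken from the gate it came out of. The reagent was 10% biotinylated, detergent-solubilized Sf9 membrane, applied for 1 hour at 4 °C to galactose-induced yeast display cells.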

Row | Sequence | polyreactivity (PSR sort gate)
1 | QVQLVESGGGLVQAGGSLRLSCAASGRIFDLYAMGWYRQAPGKERELVATISSGGSTYYADSVKVRFTISRDNAKNTVYLQMNSLKPEDTAVYYCAADSWVQFDYWGQGKQVTVSS | low polyreactivity
2 | QVQLVESGGGLVQAGGSLRFSCAASGFTFVINDMGWYRQAPGKERELVADITSGGDTYYADSVKGRFTISRDNAKNTVYLQMNSLKPEDTAVYYCAADIYPDWIYLLYGYWGQGTQVTVSS | low polyreactivity
3 | QVQHVESGGGLVQAGGSLRLSCAASGRTSYTNAMGWSRPAPGKERELVAAINYSGGSTYYADSVKGRYTISRDNAKNTVYLQMNSLKPEDTAVYYCAAERYYWYTEMGYWGQGTQVTVSS | high polyreactivity
4 | QVQLVQSGGGLVQAGGSLRLSCAASGSTFSGYTMGWYRQAPGKEREFVAAISSRGGSTYYADSVKGRFTISRDNAKNTVYLQMNSLKPEDTAVYYCAAKVWARVDGRQFRMEYWGQGTQVTVSS | high polyreactivity
5 | QVQHVESVGGLVQAGGSLPLSGASSGFIFRKNAMGWYRQATGKEREFVAAISRRGGCTYYADSVKGRFTISRDNAKNTVYLQMNSLKPEDTAVYYCNAELYDVGSHEYDYWVQGTQVTVSS | high polyreactivity
6 | QVQLVESGGGLVQAGGSLRLSCAASGSTFETNAMGWYRQAPGKERELVAAISVSGGDTYYADSVKGRFTISRDNAKNTVYLQMNSLKPEDTAVYYCAAAERGYIFPDRMRYDYWGQGTQVTVSS | low polyreactivity
7 | QVQLVESGGGLVQAGGSLRLSSAASGRIFWFNAMGWYRQAPGKEREWVATISSGDSTNYADSVKGRFTISRDNAKNTVYLQMNSLKPDDTAVYYCNARVSHVQVGFDSWGQCTQVTVSS | low polyreactivity
8 | QVQLVESGGGLVQAVASLRLSCAASGRIFGPYAMGWDRQAPGKERELVASITRSGGRTYYADSVKGRFTISRDYAKNTVYLQMNSLKPDDTAVYYCAAGGFSKSDYYWGQGTQVTVSS | high polyreactivity
9 | QVQLVESGGGLVQAGGSLRLSCAASGRIFWYYTMGWYRQAPGKERELVAAISRGGSTYYADSVKGRFTISRDNAKNTVYLQMNSLKPEDTAVYYCAAQESWKIYDYWGQGTQVTVSS | low polyreactivity
10 | QVQLVESGRGLVQAGGSLRLSCAASGSTLGVNAMGWYRQAPGKERELVAAISRSGTSTYYADSVKGRFTISRDNAKNTVYLQMNSLKPEDTAVYYCAAQYVIFGSRSRQFIEYEYWGQGTQVTVSS | high polyreactivity
11 | QVQLVESGGGLVQAGGSLRLSCAASGLIFKYNGRGWNRQAPGNVRELGAAITKRGGSTYYADSVKGRFTISRDKAKNTVYLQMNSLKPEDTAVYYCAAGRAGRKDYYWGQGTQVTVSS | high polyreactivity
12 | QVQLVESAGYLVQAAASLRLSCAASGLIFVYYALGWYRQAPGKERELVAFITSVGSTYYGDSVKGRFTISRDNAKYTVYLQMNSVNPEDTAVYYCAAEWEFYGFDYWGQGTQVTVSA | low polyreactivity
13 | QVQLVESGGGLVQAGGSLRFSCAASGGIYYLYAMGWYRQAPGKEREFVAAISSSGGSTNYADSVMGRFTISRDNAKNTVYLQMNSLKRDDSAVYYCNAVDWKQEVGGWVEYDYWGQGTQVNVSS | high polyreactivity
14 | QVQLVESGGGLVQAGGSLRLSCAASGIIFGVNVMGWYRQAPGKERELVATITWRGDSTYYADSVKGRFTISRDNAKNTVYLQMNSLKPEDTAVYYCAVLRSWWYRYDYWGQGTQVTVSS | low polyreactivity
15 | QVQLVESGGVLVQAGGSLRLSCAASGGIFNYYAMGWYRQAPGKERELVAAISASGGSTYYADSVKGRFTISRDNAKNTVYLQMNILKPEDTAVYYCAAGLPYGYGYDYWGQGTQVTVSS | low polyreactivity
16 | QVQLVESGGGLVQAGGSLRLSCDASGIIFYYNAMGWYRQAPGKERELVDRINSGGSTNYADSVKGRFTISRDNAKNTVDFQMTSMKPEDTAVYYCAARVRRWSYYGALFEYWGQGTQVTVSS | low polyreactivity
17 | QFQLVESGGGLVQAGGSLRLSCAASGRIFVYNAMGLYRQAPGKEREFVATITSSGGRTYYADSVKGRFTISRDNAKNTVYLQLNSLKPEDTAVYYWAARPQNNGRNPLYRYNYWGQGTQVTVSS | high polyreactivity
